One molecule from article PMC4374754 can be followed below.

Test [1] concerns the target RecA D112R, fluorescein-labelled (E. coli). Put plainly: fluorescence polarisation; 20 nM fluorescein-labelled RecA titrated with pol V in solution, no ssDNA (inactive complex); pol V standard reaction buffer (20 mM Tris pH 7.5, 8 mM MgCl2, 5 mM DTT, 0.1 mM EDTA, 25 mM sodium glutamate, 4% glycerol), 25°C; apparent Kd, one-site specific binding. On the technique in general: Polarisation of emitted light reports the rotation of a fluorescent probe.

Test [2] concerns the target RecA D112R N113R, fluorescein-labelled (E. coli). The test is described as above.
The target in test [3] is RecA D112R (E. coli).

B1: DNA polymerase V (UmuD′2C) (complex)
chain 1: MFALCDVNAFYASCETVFRPDLWGKPVVVLSNNDGCVIARNAEAKALGVKMGDPWFKQKDLFRRCGVVCFSSNYELYADMSNRVMSTLEELSPRVEIYSIDEAFCDLTGVRNCRDLTDFGREIRATVLQRTHLTVGVGIAQTKTLAKLANHAAKKWQRQTGGVVDLSNLERQRKLMSALPVDDVWGIGRRISKKLDAMGIKTVLDLADTDIRFIRKHFNVVLERTVRELRGEPCLQLEEFAPTKQEIICSRSFGERITDYPSMRQAICSYAARAAEKLRSEHQYCRFISTFIKTSPFALNEPYYGNSASVKLLTPTQDSRDIINAATRSLDAIWQAGHRYQKAGVMLGDFFSQGVAQLNLFDDNAPRPGSEQLMTVMDTLNAKEGRGTLYFAGQGIQQQWQMKRAMLSPRYTTRSSDLLRVK
chain 2: GFPSPAADYVEQRIDLNQLLIQHPSATYFVKASGDSMIDGGISDGDLLIVDSAITASHGDIVIAAVDGEFTVKKLQLRPTVQLIPMNSAYSPITISSEDTLDVFGVVIHVVKAMR
For the molecule B1, the Kd in test [1] and in test [2] was 250 nM each time. This molecule registered a primer utilization in the pol V transactivation assay (RecA* on poly dT, hairpin primer-template, 1 h at 37°C) in test [3] of 27%.
